According to patent publication US20260217813A1 (published 2026):

T1: human IL-23 (IL-23-His-Biotin, Akesobio, 20161209) (human, UniProt Q9NPF7 20-189; P29460 23-328)
T1 construct: His-tagged and biotinylated; also called human IL23-His-Biotin
T1 sequence (looked up) 1: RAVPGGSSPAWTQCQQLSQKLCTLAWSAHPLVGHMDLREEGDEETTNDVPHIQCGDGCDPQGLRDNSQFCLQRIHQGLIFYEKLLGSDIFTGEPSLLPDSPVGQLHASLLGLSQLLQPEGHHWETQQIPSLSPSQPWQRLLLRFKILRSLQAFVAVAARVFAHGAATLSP
T1 sequence (looked up) 2: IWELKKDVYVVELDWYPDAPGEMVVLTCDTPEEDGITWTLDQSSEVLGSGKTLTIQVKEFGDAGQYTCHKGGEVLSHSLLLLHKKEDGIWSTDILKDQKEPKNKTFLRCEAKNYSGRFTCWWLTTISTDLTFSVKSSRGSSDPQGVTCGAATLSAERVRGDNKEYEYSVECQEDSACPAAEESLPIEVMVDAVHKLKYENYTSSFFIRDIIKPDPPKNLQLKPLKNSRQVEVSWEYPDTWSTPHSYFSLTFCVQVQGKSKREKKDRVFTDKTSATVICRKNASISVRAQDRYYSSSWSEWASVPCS

T2: IL-12 (Human IL12 (His Tag)), Sino Biological Cat. No. CT-050-H08H-20 (human, UniProt P29460 23-328; P29459 23-219)
T2 construct: Bought His-tagged p35/p40 heterodimer
T2 sequence (looked up) 1: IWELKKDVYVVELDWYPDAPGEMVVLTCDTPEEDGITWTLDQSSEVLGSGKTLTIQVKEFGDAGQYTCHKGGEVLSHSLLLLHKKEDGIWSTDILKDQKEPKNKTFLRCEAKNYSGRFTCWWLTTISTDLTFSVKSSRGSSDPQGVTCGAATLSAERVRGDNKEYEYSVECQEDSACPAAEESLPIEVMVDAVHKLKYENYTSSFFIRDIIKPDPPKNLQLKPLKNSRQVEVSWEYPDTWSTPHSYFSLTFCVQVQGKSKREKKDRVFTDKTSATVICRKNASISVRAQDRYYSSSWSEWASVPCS
T2 sequence (looked up) 2: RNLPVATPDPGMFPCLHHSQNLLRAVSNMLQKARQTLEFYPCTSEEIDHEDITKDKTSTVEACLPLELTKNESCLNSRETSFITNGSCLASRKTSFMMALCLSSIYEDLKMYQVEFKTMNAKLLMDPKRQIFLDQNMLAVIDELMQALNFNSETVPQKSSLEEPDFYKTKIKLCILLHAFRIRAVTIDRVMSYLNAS


How the values were obtained:
[1] = target: T1, human IL-23 (IL-23-His-Biotin, …); test: FACS competition, IL-23-His-Biotin 2 µg/mL on 293T-IL-12RB1&IL-23R cells, antibody 1.11 µg/mL
Description: (§1) 2.1. […] 200 μL of 1% PBSA was added into each sample, and the mixture was centrifuged at 700×g for 5 min to discard the supernatant. According to experiment design, correspondingly diluted antibody (highest final concentration of 30 μg/mL, 3-fold dilution, 8 concentrations in total) and human IL-23 (IL-23-His-Biotin, Akesobio, 20161209) (final concentration of 2 μg/mL) were mixed at a ratio of 1:1, and a blank control was set. The mixture of antibody and human IL23 was incubated on ice for 30 min and then added to the cell precipitate at 100 μL/sample. The resulting mixture was well mixed and incubated on ice for 60 min. 200 μL of 1% PBSA was added, and the mixture was centrifuged at 700×g for 5 min to discard the supernatant, and then washed twice. FITC Streptavidin (Biolegend, Cat. No.: 405202) was diluted at a ratio of 1:500 and added to each tube at 100 μL. The mixture was well mixed and incubated on ice for 40 min in the absence of light. 200 μL of 1% PBSA was added, and the mixture was centrifuged at 700×g for 5 min to discard the supernatant, and then washed twice. 1% PBSA was added at 200 μL/tube, and the cells were resuspended and transferred to a flow cytometry tube for testing.

[2] = target: T2, IL-12 (Human IL12 (His Tag)), Sino …; test: FACS competition, IL-12-His 20 nM on 293T-IL-12RB1&IL-23R cells, antibody 30 µg/mL
Description: (§2) 200 μL of 1% PBSA was added into each sample, and the mixture was centrifuged at 700×g for 5 min to discard the supernatant. According to experiment design, correspondingly diluted antibody (highest final concentration of 30 μg/mL, 3-fold dilution, 8 concentrations in total) and human IL-12 (Sino Biological, Cat. No.: CT-050-H08H-20) (final concentration of 20 nM) were mixed at a ratio of 1:1, and a blank control was set. The mixture of antibody and human IL12 was incubated on ice for 30 min and then added to the cell precipitate at 100 μL/sample. The resulting mixture was well mixed and incubated on ice for 60 min. 200 μL of 1% PBSA was added, and the mixture was centrifuged at 700×g for 5 min to discard the supernatant, and then washed twice. Alexa Fluor® 488 anti-His tag antibody (Biolegend, Cat. No.: 652509) was diluted at a ratio of 1:400 and added to each tube at 100 μL. The mixture was well mixed and incubated on ice for 40 min in the absence of light. 200 μL of 1% PBSA was added, and the mixture was centrifuged at 700×g for 5 min to discard the supernatant, and then washed twice. 1% PBSA was added at 200 μL/tube, and the cells were resuspended and transferred to a flow cytometry tube for testing.

[3] = target: T2, IL-12 (Human IL12 (His Tag)), Sino …; test: FACS competition, IL-12-His 20 nM on 293T-IL-12RB1&IL-23R cells, antibody 0.12 µg/mL
Description: as §2

[4] = target: T2, IL-12 (Human IL12 (His Tag)), Sino …; test: FACS competition, IL-12-His 20 nM on 293T-IL-12RB1&IL-23R cells, antibody 0.04 µg/mL
Description: as §2

[5] = target: T2, IL-12 (Human IL12 (His Tag)), Sino …; test: FACS competition, IL-12-His 20 nM on 293T-IL-12RB1&IL-23R cells, antibody 10 µg/mL
Description: as §2

[6] = target: T1, human IL-23 (IL-23-His-Biotin, …); test: FACS competition, IL-23-His-Biotin 2 µg/mL on 293T-IL-12RB1&IL-23R cells, antibody 3.33 µg/mL
Description: as §1

[7] = target: T1, human IL-23 (IL-23-His-Biotin, …); test: FACS competition, IL-23-His-Biotin 2 µg/mL on 293T-IL-12RB1&IL-23R cells, antibody 0.04 µg/mL
Description: as §1

[8] = target: T1, human IL-23 (IL-23-His-Biotin, …); test: FACS competition, IL-23-His-Biotin 2 µg/mL on 293T-IL-12RB1&IL-23R cells, antibody 0.37 µg/mL
Description: as §1

| Binder | MFI [1] | MFI [2] | MFI [3] | MFI [4] | MFI [5] | MFI [6] | MFI [7] | MFI [8] |
| --- | --- | --- | --- | --- | --- | --- | --- | --- |
| H5L10 (antibody, human IgG1, kappa, V domains shown, IgG1/kappa) VH: EVQLVQSGAEVKKPGESLKISCQSSGYSFTTYWIGWVRQMPGQGLEWIGIMSPVDSDIRYNPMFRGQVTMSVDKSSSTAYLQWSSLKASDTAMYYCARRRPGQGYFDFWGQGTMVTVSS VL: EIVLTQSPATLSASPGERATISCRASQSVGSWLAWYQQKPGQAPRSLIYAASNLQSGIPARFSGSGSGTDFTLTISSLEPEDFAVYYCQQYNIYPYTFGQGTRLEIKR | 81.6 | 31.6 | 151 | 154 | 34.1 | 15.7 | 230 | 169 |
| H5L12 (antibody, human IgG1, kappa, V domains shown, IgG1/kappa) VH: EVQLVQSGAEVKKPGESLKISCQSSGYSFTTYWIGWVRQMPGQGLEWIGIMSPVDSDIRYNPMFRGQVTMSVDKSSSTAYLQWSSLKASDTAMYYCARRRPGQGYFDFWGQGTMVTVSS VL: EIVLTQSPATLSASPGERATISCRASQSVSSWLAWYQQKPGQAPRSLIYAASNRQSGIPARFSGSGSGTDFTLTISSLEPEDFAVYYCQQYNIYPYTFGQGTRLEIKR | 88.5 | 31.8 | 133 | 149 | 32.4 | 15.8 | 234 | 177 |
| ustekinumab (trade name Stelara) (antibody, V domains shown) VH: EVQLVQSGAEVKKPGESLKISCKGSGYSFTTYWLGWVRQMPGKGLDWIGIMSPVDSDIRYSPSFQGQVTMSVDKSITTAYLQWNSLKASDTAMYYCARRRPGQGYFDFWGQGTLVTVSS VL: DIQMTQSPSSLSASVGDRVTITCRASQGISSWLAWYQQKPEKAPKSLIYAASSLQSGVPSRFSGSGSGTDFTLTISSLQPEDFATYYCQQYNIYPYTFGQGTKLEIK | 121 | 28.7 | 137 | 150 | 31 | 13.8 | 216 | 186 |

Next, values leading:

| MFI [1] | MFI [2] | MFI [3] | MFI [4] | MFI [5] | MFI [6] | MFI [7] | MFI [8] | Binder |
| --- | --- | --- | --- | --- | --- | --- | --- | --- |
| 184 | 117 | 160 | 158 | 134 | 153 | 221 | 206 | H5L9 (antibody, human IgG1, kappa, V domains shown, Humanized anti-human IL-12/IL-23 p40 antibody; IgG1 (P01857) / kappa (P01834) constant regions) VH: EVQLVQSGAEVKKPGESLKISCQSSGYSFTTYWIGWVRQMPGQGLEWIGIMSPVDSDIRYNPMFRGQVTMSVDKSSSTAYLQWSSLKASDTAMYYCARRRPGQGYFDFWGQGTMVTVSS VL: DIQMTQSPSSLSASVGDRVTITCKASQNVGSWLAWYQQKPGKAPKSLIYSASSRQSGVPSRFSGSGSGTDFTLTISSLQPEDFATYYCQQYDIYPFTFGQGTKLEIKR |
| 95.6 | 34.9 | 146 | 155 | 46.3 | 23.6 | 216 | 179 | H5L14 (antibody, human IgG1, kappa, V domains shown, IgG1/kappa) VH: EVQLVQSGAEVKKPGESLKISCQSSGYSFTTYWIGWVRQMPGQGLEWIGIMSPVDSDIRYNPMFRGQVTMSVDKSSSTAYLQWSSLKASDTAMYYCARRRPGQGYFDFWGQGTMVTVSS VL: EIVLTQSPATLSASPGERATISCRASQSVSSWLAWYQQKPGQAPRSLIYAASNLQSGIPARFSGSGSGTDFTLTISSLEPEDFAVYYCQQYNIYPFTFGQGTRLEIKR |
| 97.6 | 33 | 145 | 151 | 33.9 | 20.2 | 224 | 179 | H5L11 (antibody, human IgG1, kappa, V domains shown, IgG1/kappa) VH: EVQLVQSGAEVKKPGESLKISCQSSGYSFTTYWIGWVRQMPGQGLEWIGIMSPVDSDIRYNPMFRGQVTMSVDKSSSTAYLQWSSLKASDTAMYYCARRRPGQGYFDFWGQGTMVTVSS VL: EIVLTQSPATLSASPGERATISCRASQSVSSWLAWYQQKPGQAPRSLIYSASNLQSGIPARFSGSGSGTDFTLTISSLEPEDFAVYYCQQYNIYPYTFGQGTRLEIKR |
